In patent US20110311551A1 (INSERM, published 2011):

Legend:
human serum albumin = molecular target: T1, human serum albumin (human, UniProt P02768 25-609); assay: EIA
T1 construct: also called HSA

[1] = molecular target: T2, E2 octapeptide 479-486, GPDQRPYC (Hepatitis C virus); assay: octapeptides
T2 peptide: GPDQRPYC

[2] = molecular target: T3, E2 octapeptide 487-494, WHYPPKPC (Hepatitis C virus); assay: octapeptides
T3 peptide: WHYPPKPC

[3] = molecular target: T4, E1 region 297-306, RHWTTQGCNC (Hepatitis C virus); assay: overlapping octapeptides
T4 construct: Region found with overlapping octapeptides; also called E1 297-306
T4 peptide: RHWTTQGCNC

[4] = molecular target: T5, E2 region 613-621, YRLWHYPCT (Hepatitis C virus); assay: overlapping octapeptides
T5 construct: Region found with overlapping octapeptides; also called E2 613-621
T5 peptide: YRLWHYPCT

[5] = molecular target: T6, E2 region 480-494, PDQRPYCWHYPPKPC (Hepatitis C virus); assay: ELISA with pentadecapeptides
T6 construct: also called E2 480-494; regions 480-494 of E2 as pentadecapeptide
T6 peptide: PDQRPYCWHYPPKPC

[6] = molecular target: T7, peptides corresponding to the 347-356 E1 region (Hepatitis C virus); assay: overlapping synthetic pentadecapeptides on a membrane, colorimetric immunoassay
T7 construct: 347-356 was counted over to 5-14 on that entry; Made as overlapping pentadecapeptides on a membrane; also called E1 347-356

[7] = molecular target: T8, peptides corresponding to the E2 region 612-626 (Hepatitis C virus); assay: as above
T8 construct: 612-626 was counted over to 3-17 on that entry; also called E2 612-626
T8 peptide: PYRLWHYPCTINYTI

[8] = molecular target: T9, peptides corresponding to the E2 region 686-697 (Hepatitis C virus); assay: as above
T9 construct: 686-697 was counted over to 2-13 on that entry; also called E2 686-697
T9 peptide: STGLIHLHQNIV

Measured: binding result

T1 sequence (P02768 25-609 limits assumed): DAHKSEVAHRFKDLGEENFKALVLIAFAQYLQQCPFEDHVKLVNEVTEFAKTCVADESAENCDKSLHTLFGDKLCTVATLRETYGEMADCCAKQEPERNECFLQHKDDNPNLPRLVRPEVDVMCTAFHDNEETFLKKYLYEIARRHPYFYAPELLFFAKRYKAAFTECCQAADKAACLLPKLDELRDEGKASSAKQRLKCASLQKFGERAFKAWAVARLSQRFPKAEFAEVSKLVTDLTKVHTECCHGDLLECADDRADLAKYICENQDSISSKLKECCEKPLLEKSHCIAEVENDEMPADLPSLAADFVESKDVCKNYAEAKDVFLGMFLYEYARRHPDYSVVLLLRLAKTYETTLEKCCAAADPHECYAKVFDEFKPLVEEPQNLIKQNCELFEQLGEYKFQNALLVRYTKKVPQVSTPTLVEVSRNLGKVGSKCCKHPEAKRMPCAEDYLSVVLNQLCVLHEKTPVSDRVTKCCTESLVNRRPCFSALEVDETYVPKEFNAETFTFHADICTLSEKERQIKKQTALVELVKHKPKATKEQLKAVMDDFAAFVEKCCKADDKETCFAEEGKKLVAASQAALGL

B1: monoclonal antibody D32.10 (antibody, V domains shown)
VH: EVQLQQSGAELVKPGASVKLSCTPSGFNIKDTYIHWVKQRPEQGLEWIGMINPANGNSNYDPKFQDKATITADTSSNTAYLQLSSLTSEDTAVYYCAEITTDFDVWGAGTTVTVSS
VL: NIVLTQSPPSLAVSLGQRATISCRASESVDSYGNSFLHWYQQKSGQPPKLLIYLASNLESGVPARFSGSGSRTDFTLTIDPLEADDAATYYCQQNNEAPFTFGSGTKLEIKR
notes: also called mAb D32.10; MAb D32.10
no binding: human serum albumin | [6] | [8]
binds: all other assays above
